Measured values as given in patent US20120172293A1 (Takeda / Millennium, published 2012).
Non-standard residues stand in square brackets, D forms with d. No end group written: not given here. *: point of attachment. X11 = ((1S)-1-carboxy-3-methylbutyl)carbamoyl, CC(C)C[C@H](NC(=O)*)C(=O)O; 4‑guanidinomethylbenzoyl = N=C(N)NCc1ccc(C(=O)*)cc1; Phe(3-F) = N[C@@H](Cc1cccc(F)c1)C(=O)O; Phe(3-Me) = Cc1cccc(C[C@H](N)C(=O)O)c1; Phe(4-Me) = Cc1ccc(C[C@H](N)C(=O)O)cc1; Phe(2-F) = N[C@@H](Cc1ccccc1F)C(=O)O; Phe(2-Me) = Cc1ccccc1C[C@H](N)C(=O)O; NMeF = CN[C@@H](Cc1ccccc1)C(=O)O; Tic = O=C(O)[C@@H]1Cc2ccccc2CN1; Cha = N[C@@H](CC1CCCCC1)C(=O)O; dIva = CC[C@@](C)(N)C(=O)O; 4Amb = NCc1ccc(C(=O)O)cc1; Iva = CC[C@](C)(N)C(=O)O; Aib = CC(C)(N)C(=O)O

T1: human Y2 receptor (human, UniProt P49146 1-381)
T1 sequence (looked up): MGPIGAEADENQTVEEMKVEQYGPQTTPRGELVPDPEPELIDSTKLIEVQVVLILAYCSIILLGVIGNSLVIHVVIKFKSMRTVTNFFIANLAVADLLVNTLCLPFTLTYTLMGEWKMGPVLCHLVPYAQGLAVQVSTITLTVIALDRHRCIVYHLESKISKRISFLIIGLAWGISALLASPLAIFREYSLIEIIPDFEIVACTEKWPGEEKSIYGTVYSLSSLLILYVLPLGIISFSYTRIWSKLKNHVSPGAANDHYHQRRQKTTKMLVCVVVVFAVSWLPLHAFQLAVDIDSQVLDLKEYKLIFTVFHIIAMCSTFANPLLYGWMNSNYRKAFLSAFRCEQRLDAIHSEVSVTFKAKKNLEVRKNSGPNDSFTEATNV

B1: Ac-[D-Pro24, Iva27, Cha28,36, Aib31]-PYY(23-36) (peptide)
peptide: Ac-S[dP]RH[Iva][Cha]NL[Aib]TRQR[Cha]-NH2
SMILES: CC[C@](C)(NC(=O)[C@H](Cc1c[nH]cn1)NC(=O)[C@H](CCCNC(=N)N)NC(=O)[C@H]1CCCN1C(=O)[C@H](CO)NC(C)=O)C(=O)N[C@@H](CC1CCCCC1)C(=O)N[C@@H](CC(N)=O)C(=O)N[C@@H](CC(C)C)C(=O)NC(C)(C)C(=O)N[C@H](C(=O)N[C@@H](CCCNC(=N)N)C(=O)N[C@@H](CCC(N)=O)C(=O)N[C@@H](CCCNC(=N)N)C(=O)N[C@@H](CC1CCCCC1)C(N)=O)[C@@H](C)O
notes: also called compound No. 175
B2: Ac-[D-Pro24, Cha27,28, Aib31, Phe(3Me)36]-PYY(23-36) (peptide)
peptide: Ac-S[dP]RH[Cha][Cha]NL[Aib]TRQR[Phe(3-Me)]-NH2
SMILES: CC(=O)N[C@@H](CO)C(=O)N1CCC[C@@H]1C(=O)N[C@@H](CCCNC(=N)N)C(=O)N[C@@H](Cc1c[nH]cn1)C(=O)N[C@@H](CC1CCCCC1)C(=O)N[C@@H](CC1CCCCC1)C(=O)N[C@@H](CC(N)=O)C(=O)N[C@@H](CC(C)C)C(=O)NC(C)(C)C(=O)N[C@H](C(=O)N[C@@H](CCCNC(=N)N)C(=O)N[C@@H](CCC(N)=O)C(=O)N[C@@H](CCCNC(=N)N)C(=O)N[C@@H](Cc1cccc(C)c1)C(N)=O)[C@@H](C)O
notes: also called compound No. 197
B3: Ac-[D-Pro24, Cha27,28, Aib31, Phe(2Me)36]-PYY(23-36) (peptide)
peptide: Ac-S[dP]RH[Cha][Cha]NL[Aib]TRQR[Phe(2-Me)]-NH2
SMILES: CC(=O)N[C@@H](CO)C(=O)N1CCC[C@@H]1C(=O)N[C@@H](CCCNC(=N)N)C(=O)N[C@@H](Cc1c[nH]cn1)C(=O)N[C@@H](CC1CCCCC1)C(=O)N[C@@H](CC1CCCCC1)C(=O)N[C@@H](CC(N)=O)C(=O)N[C@@H](CC(C)C)C(=O)NC(C)(C)C(=O)N[C@H](C(=O)N[C@@H](CCCNC(=N)N)C(=O)N[C@@H](CCC(N)=O)C(=O)N[C@@H](CCCNC(=N)N)C(=O)N[C@@H](Cc1ccccc1C)C(N)=O)[C@@H](C)O
notes: also called compound No. 196
B4: [(1S)-1-carboxy-3-methylbutyl]carbamoyl-[D-Pro24, Cha27,28,36, Aib31]-PYY(23-36) (peptide)
peptide: X11-S[dP]RH[Cha][Cha]NL[Aib]TRQR[Cha]-NH2
SMILES: CC(C)C[C@H](NC(=O)N[C@@H](CO)C(=O)N1CCC[C@@H]1C(=O)N[C@@H](CCCNC(=N)N)C(=O)N[C@@H](Cc1c[nH]cn1)C(=O)N[C@@H](CC1CCCCC1)C(=O)N[C@@H](CC1CCCCC1)C(=O)N[C@@H](CC(N)=O)C(=O)N[C@@H](CC(C)C)C(=O)NC(C)(C)C(=O)N[C@H](C(=O)N[C@@H](CCCNC(=N)N)C(=O)N[C@@H](CCC(N)=O)C(=O)N[C@@H](CCCNC(=N)N)C(=O)N[C@@H](CC1CCCCC1)C(N)=O)[C@@H](C)O)C(=O)O
notes: also called compound No. 184
B5: Ac-[D-Pro24, Cha27,28, Aib31, Phe(3F)36]-PYY(23-36) (peptide)
peptide: Ac-S[dP]RH[Cha][Cha]NL[Aib]TRQR[Phe(3-F)]-NH2
SMILES: CC(=O)N[C@@H](CO)C(=O)N1CCC[C@@H]1C(=O)N[C@@H](CCCNC(=N)N)C(=O)N[C@@H](Cc1c[nH]cn1)C(=O)N[C@@H](CC1CCCCC1)C(=O)N[C@@H](CC1CCCCC1)C(=O)N[C@@H](CC(N)=O)C(=O)N[C@@H](CC(C)C)C(=O)NC(C)(C)C(=O)N[C@H](C(=O)N[C@@H](CCCNC(=N)N)C(=O)N[C@@H](CCC(N)=O)C(=O)N[C@@H](CCCNC(=N)N)C(=O)N[C@@H](Cc1cccc(F)c1)C(N)=O)[C@@H](C)O
notes: also called compound No. 195
B6: 4-Aminomethylbenzoyl-[Ala26, Ile28,31, NMePhe36]-PYY(25-36) (peptide)
peptide: [4Amb]RAYINLITRQR[NMeF]-NH2
modifications: N-terminus assumed
SMILES: CC[C@H](C)[C@H](NC(=O)[C@H](Cc1ccc(O)cc1)NC(=O)[C@H](C)NC(=O)[C@H](CCCNC(=N)N)NC(=O)c1ccc(CN)cc1)C(=O)N[C@@H](CC(N)=O)C(=O)N[C@@H](CC(C)C)C(=O)N[C@H](C(=O)N[C@H](C(=O)N[C@@H](CCCNC(=N)N)C(=O)N[C@@H](CCC(N)=O)C(=O)N[C@@H](CCCNC(=N)N)C(=O)N(C)[C@@H](Cc1ccccc1)C(N)=O)[C@@H](C)O)[C@@H](C)CC
notes: also called compound No. 16
B7: 4-Aminomethylbenzoyl-[Ala26, Ile28,31, Phe(4Me)36]-PYY(25-36) (peptide)
peptide: [4Amb]RAYINLITRQR[Phe(4-Me)]-NH2
modifications: N-terminus assumed
SMILES: CC[C@H](C)[C@H](NC(=O)[C@H](Cc1ccc(O)cc1)NC(=O)[C@H](C)NC(=O)[C@H](CCCNC(=N)N)NC(=O)c1ccc(CN)cc1)C(=O)N[C@@H](CC(N)=O)C(=O)N[C@@H](CC(C)C)C(=O)N[C@H](C(=O)N[C@H](C(=O)N[C@@H](CCCNC(=N)N)C(=O)N[C@@H](CCC(N)=O)C(=O)N[C@@H](CCCNC(=N)N)C(=O)N[C@@H](Cc1ccc(C)cc1)C(N)=O)[C@@H](C)O)[C@@H](C)CC
notes: also called compound No. 15
B8: Ac-[D-Pro24, D-Iva27, Cha28,36, Aib31]-PYY(23-36) (peptide)
peptide: Ac-S[dP]RH[dIva][Cha]NL[Aib]TRQR[Cha]-NH2
SMILES: CC[C@@](C)(NC(=O)[C@H](Cc1c[nH]cn1)NC(=O)[C@H](CCCNC(=N)N)NC(=O)[C@H]1CCCN1C(=O)[C@H](CO)NC(C)=O)C(=O)N[C@@H](CC1CCCCC1)C(=O)N[C@@H](CC(N)=O)C(=O)N[C@@H](CC(C)C)C(=O)NC(C)(C)C(=O)N[C@H](C(=O)N[C@@H](CCCNC(=N)N)C(=O)N[C@@H](CCC(N)=O)C(=O)N[C@@H](CCCNC(=N)N)C(=O)N[C@@H](CC1CCCCC1)C(N)=O)[C@@H](C)O
notes: also called compound No. 180
B9: 4-Aminomethylbenzoyl-[Ala26, Ile28,31, Tic36]-PYY(25-36) (peptide)
peptide: [4Amb]RAYINLITRQR[Tic]-NH2
modifications: N-terminus assumed
SMILES: CC[C@H](C)[C@H](NC(=O)[C@H](Cc1ccc(O)cc1)NC(=O)[C@H](C)NC(=O)[C@H](CCCNC(=N)N)NC(=O)c1ccc(CN)cc1)C(=O)N[C@@H](CC(N)=O)C(=O)N[C@@H](CC(C)C)C(=O)N[C@H](C(=O)N[C@H](C(=O)N[C@@H](CCCNC(=N)N)C(=O)N[C@@H](CCC(N)=O)C(=O)N[C@@H](CCCNC(=N)N)C(=O)N1Cc2ccccc2C[C@H]1C(N)=O)[C@@H](C)O)[C@@H](C)CC
notes: also called compound No. 17
B10: Ac-[D-Pro24, Cha27,28, Aib31, Phe(2F)36]-PYY(23-36) (peptide)
peptide: Ac-S[dP]RH[Cha][Cha]NL[Aib]TRQR[Phe(2-F)]-NH2
SMILES: CC(=O)N[C@@H](CO)C(=O)N1CCC[C@@H]1C(=O)N[C@@H](CCCNC(=N)N)C(=O)N[C@@H](Cc1c[nH]cn1)C(=O)N[C@@H](CC1CCCCC1)C(=O)N[C@@H](CC1CCCCC1)C(=O)N[C@@H](CC(N)=O)C(=O)N[C@@H](CC(C)C)C(=O)NC(C)(C)C(=O)N[C@H](C(=O)N[C@@H](CCCNC(=N)N)C(=O)N[C@@H](CCC(N)=O)C(=O)N[C@@H](CCCNC(=N)N)C(=O)N[C@@H](Cc1ccccc1F)C(N)=O)[C@@H](C)O
notes: also called compound No. 194
B11: 4-Guanidinomethylbenzoyl-[Ala26, Ile28,31]-PYY(25-36) (peptide)
peptide: {4‑guanidinomethylbenzoyl}-RAYINLITRQRY-NH2
SMILES: CC[C@H](C)[C@H](NC(=O)[C@H](Cc1ccc(O)cc1)NC(=O)[C@H](C)NC(=O)[C@H](CCCNC(=N)N)NC(=O)c1ccc(CNC(=N)N)cc1)C(=O)N[C@@H](CC(N)=O)C(=O)N[C@@H](CC(C)C)C(=O)N[C@H](C(=O)N[C@H](C(=O)N[C@@H](CCCNC(=N)N)C(=O)N[C@@H](CCC(N)=O)C(=O)N[C@@H](CCCNC(=N)N)C(=O)N[C@@H](Cc1ccc(O)cc1)C(N)=O)[C@@H](C)O)[C@@H](C)CC
notes: also called compound No. 4
B12: 4-Aminomethylbenzoyl-[Ala26,28, Ile31]-PYY(25-36) (peptide)
peptide: [4Amb]RAYANLITRQRY-NH2
modifications: N-terminus assumed
SMILES: CC[C@H](C)[C@H](NC(=O)[C@H](CC(C)C)NC(=O)[C@H](CC(N)=O)NC(=O)[C@H](C)NC(=O)[C@H](Cc1ccc(O)cc1)NC(=O)[C@H](C)NC(=O)[C@H](CCCNC(=N)N)NC(=O)c1ccc(CN)cc1)C(=O)N[C@H](C(=O)N[C@@H](CCCNC(=N)N)C(=O)N[C@@H](CCC(N)=O)C(=O)N[C@@H](CCCNC(=N)N)C(=O)N[C@@H](Cc1ccc(O)cc1)C(N)=O)[C@@H](C)O
notes: also called compound No. 31
B13: Ac-[Arg20, D-Tyr21, D-Pro24, Cha27,28,36, Aib31]-PYY(20-36) (peptide)
peptide: Ac-R[dY]AS[dP]RH[Cha][Cha]NL[Aib]TRQR[Cha]-NH2
SMILES: CC(=O)N[C@@H](CCCNC(=N)N)C(=O)N[C@H](Cc1ccc(O)cc1)C(=O)N[C@@H](C)C(=O)N[C@@H](CO)C(=O)N1CCC[C@@H]1C(=O)N[C@@H](CCCNC(=N)N)C(=O)N[C@@H](Cc1c[nH]cn1)C(=O)N[C@@H](CC1CCCCC1)C(=O)N[C@@H](CC1CCCCC1)C(=O)N[C@@H](CC(N)=O)C(=O)N[C@@H](CC(C)C)C(=O)NC(C)(C)C(=O)N[C@H](C(=O)N[C@@H](CCCNC(=N)N)C(=O)N[C@@H](CCC(N)=O)C(=O)N[C@@H](CCCNC(=N)N)C(=O)N[C@@H](CC1CCCCC1)C(N)=O)[C@@H](C)O
notes: also called compound No. 164

target: T1, human Y2 receptor; assay: cell-based or functional assay

Binder	GBA EC50 Ratio (vs PYY(3-36)), [35S]GTPγS [ratio]
B1	2.6
B2	1.9
B3	1.6
B4	2.9
B5	1.5
B6	45
B7	5.5
B8	6
B9	66
B10	1.3
B11	1.1
B12	29
B13	0.66

target: T1, human Y2 receptor; assay: RBA: [125I]-PYY displacement, hY2R/CHO membranes
Outline: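 Bound radioligand was collected by filtration on PEI-treated GF/C filters, washed with Tris/MgCl₂/NaCl/CHAPS buffer pH 7.4, and counted by scintillation; IC₅₀ values were calculated.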

Binder	IC50 Ratio (vs PYY(3-36)) [ratio]
B1	6.4
B2	1.3
B3	1.6
B4	1.5
B5	2.1
B6	120
B7	8.7
B8	8.1
B9	180
B10	1.4
B11	2.4
B12	42
B13	0.44
